The target in experiment [1] is human Trop-2 on the surface of cells (CHO/Trop-2 cells; BxPC-3 cells; NCI-N87 cells) (human) (UniProt P09758). Put plainly: FACS, BxPC cells, antibody left on the surface, control kept at 4° C.
Experiment [2] shares this target. Put plainly: cell-based or functional assay.
The target is the same in experiment [3]. Put plainly: FACS, BxPC cells, antibody left on the surface after 3 h at 37° C. In general terms: A flow cytometer gives signals particle by particle.

Chain of human Trop-2 on the surface of cells (CHO/Trop-2 cells; BxPC-3 cells; NCI-N87 cells) (human) (P09758 27-323): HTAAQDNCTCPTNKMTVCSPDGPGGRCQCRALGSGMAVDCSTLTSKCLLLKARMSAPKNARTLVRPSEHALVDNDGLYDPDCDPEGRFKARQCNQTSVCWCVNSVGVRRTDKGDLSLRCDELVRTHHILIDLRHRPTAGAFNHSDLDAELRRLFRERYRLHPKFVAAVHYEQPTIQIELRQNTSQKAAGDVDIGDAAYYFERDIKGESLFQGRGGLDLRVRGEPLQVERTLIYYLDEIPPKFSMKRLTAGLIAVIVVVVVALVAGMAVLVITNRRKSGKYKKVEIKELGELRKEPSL

In turn, IgG1 isotype control antibody NC-IgG1 showed a Fluorescence intensity (MFI), 4° C. in experiment [1] of 739 MFI. In experiment [2], the Internalization percentage (%), 3 h, BxPC cells, FACS worked out at 3.29%; the Internalization percentage, 1 h, BXPC-3 cells, FACS is -63%; the Internalization percentage, 1 h, NCI-N87 cells, FACS is -95%. The Fluorescence intensity (MFI), 37° C. in experiment [3] was determined as 715 MFI.

Source of the values: patent US20240092930A1.
